According to article PMC2964155 (Virology, 2010):
Values joined by “and” are separate entries in the source; they are usually repeats but may differ in a detail not shown here. Equal values may be shown once.

How the values were obtained:
[1] = molecular target: Hepatitis B Virus (HBV) capsid protein Cp183-EEE (S155E/S162E/S170E) (Hepatitis B Virus, adyw); assay: negative-stain electron microscopy
[2] = molecular target: Hepatitis B Virus (HBV) capsid (core) protein Cp183, adyw wildtype (Hepatitis B Virus, adyw); assay: negative-stain electron microscopy
[3] = molecular target: the molecule itself; assay: SEC-MALS

“Hepatitis B Virus (HBV) capsid protein Cp183-EEE (S155E/S162E/S170E) (natural protein)” was tested, and the stoichiometry N [1] was 240 and 180.

For “Hepatitis B Virus (HBV) capsid (core) protein Cp183, adyw wildtype (natural protein)”, the stoichiometry N [2] was 240 and 180.

B1: Brome Mosaic Virus (BMV) capsid protein (natural protein)
chain: MSTSGTGKMTRAQRRAAARRNRWTARVQPVIVEPLAAGQGKAIKAIAGYSISKWEASSDAITAKATNAMSITLPHELSSEKNKELKVGRVLLWLGLLPSVAGRIKACVAEKQAQAEAAFQVALAVADSSKEVVAAMYTDAFRGATLGDLLNLQIYLYASEAVPAKAVVVHLEVEHVRPTFDDFFTPVYR
In the case of B1, the “stoichiometry N” value [3] is reported as 180.
